PMC5438564

What was measured:
[1] = target: Fyn (UniProt P39688); assay: proximity ligation assay (PLA), Fyn3 + Tau1 antibodies (tau unphosphorylated at S198/S199/S202); conditions: transfected Mapt-/- neurons; n = 16-31 neurons per construct from two experiments; parent: est. 1.0; read off a plot
[2] = target: Fyn (UniProt P39688); assay: proximity ligation assay (PLA), Fyn3 + Tau5 antibodies (total tau); conditions: transfected Mapt-/- neurons; n = 16-31 neurons per construct from two experiments; parent: est. 1.0; read off a plot

| ratio to parent [1] | ratio to parent [2] | Substance |
| --- | --- | --- |
| 1.1 | 0.41 | wildtype 0N4R mouse tau (mTau^WT) P216A; P219A |
| 0.2 | 0.2 | wildtype 0N4R mouse tau (mTau^WT) P233A; P236A |
| 1.7 | 0.3 | wildtype 0N4R mouse tau (mTau^WT) Y18F |
